# Measurements as given in patent publication US20230372518A1, “ANTIMITOTIC TETRAPEPTIDE-ANTIBODY CONJUGATES AND METHODS OF USING SAME” (Angiex, Inc., priority 2020, published 2023).
# T1: Transmembrane-4 L six family member-1 (TM4SF1) (human, UniProt P30408 1-202, limits assumed)
# T1 construct: also called hTM4SF1; human TM4SF1
# T1 sequence: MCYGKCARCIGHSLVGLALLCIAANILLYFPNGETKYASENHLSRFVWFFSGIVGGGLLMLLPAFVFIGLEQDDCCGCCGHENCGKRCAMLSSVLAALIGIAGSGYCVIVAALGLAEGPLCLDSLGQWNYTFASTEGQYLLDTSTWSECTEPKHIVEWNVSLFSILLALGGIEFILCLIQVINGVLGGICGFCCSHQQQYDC
# B1: monoclonal murine antibody AGX-A08 (antibody, V domains shown)
# VH: EVQLQQSGPELVKPGASVKLSCKASGYTVTSYVMHWVKQKPGQGLEWIGYINPYSDVTNCNEKFKGKATLTSDKTSSTAYMELSSLTSEDSAVYYCSSYGGGFAYWGQGTLVTVSA
# VL: DIQMTQSPASLSASVGEPVTITCRASKNIYTYLAWYHQKQGKSPQFLVYNARTLAGGVPSRLSGSGSVTQFSLNINTLHREDLGTYFCQHHYDTPYTFGGGTNLEIK
# notes: Murine monoclonal antibody
# B2: monoclonal murine antibody AGX-A05 (antibody, V domains shown)
# VH: EVQVQQSGPELVKPGASVKMSCKASGYTFTSYVMHWVKQKPGQGLEWIGYINPNNDNINYNEKFKGKASLTSDKSSNTVYMELSSLTSEDSAVYYCAGYGNSGANWGQGTLVTVSA
# VL: DIQMTQSPASLSASVGETVTITCRTSKNIFNFLAWYHQKQGRSPRLLVSHTKTLAAGVPSRFSGSGSGTQFSLKINSLQPEDFGIYYCQHHYGTPWTFGGGTKLEIK
# notes: Murine monoclonal antibody
# B3: monoclonal murine antibody AGX-A04 (antibody, V domains shown)
# VH: EVQLQQSGPELVKPGASVKISCKTSGYTFTDYTMHWVRQSHGKSLEWIGSFNPNNGGLTNYNQKFKGKATLTVDKSSSTVYMDLRSLTSEDSAVYYCTRIRATGFDSWGQGTTLTVSS
# VL: DIVMSQSPSSLAVSAGEKVTMSCKSSQSLLNSRTRKNYLAWYQQKPGQSPKLLIYWASTRESGVPDRFTGSGSGTDFTLTISNVQAEDLTVYYCKQSYNPPWTFGGGTKLEIK
# notes: Murine monoclonal antibody
# B4: monoclonal murine antibody AGX-A09 (antibody, V domains shown)
# VH: EVQLQQSGPELVKPGASVKMSCKASGYTFSSYVMHWVKQKPGQGLEWIGYINPYSDVTNYNEKFKGKATLTSDRSSNTAYMELSSLTSEDSAVYYCARNYFDWGRGTLVTVSA
# VL: DIQMTQSPASLSASVGETVTITCRASKNVYSYLAWFQQKQGKSPQLLVYNAKTLAEGVPSRFSGGGSGTQFSLKINSLQPADFGSYYCQHHYNIPFTFGSGTKLEIK
# notes: Murine monoclonal antibody
# B5: monoclonal murine antibody AGX-A03 (antibody, V domains shown)
# VH: QIQLVQSGPELKKPGETVKISCKASGYSFRDYGMNWVKQAPGRTFKWMGWINTYTGAPVYAADFKGRFAFSLDTSASAAFLQINNLKNEDTATYFCARWVSYGNNRNWFFDFWGAGTTVTVSS
# VL: DVLMTQTPLSLPVRLGDQASISCRSSQTLVHSNGNTYLEWYLQKPGQSPKLLIYKVSNRLSGVPDRFSGSGSGTDFTLKISRVETEDLGVYYCFQGSHGPWTFGGGTKLEIK
# notes: Murine monoclonal antibody
# B6: monoclonal murine antibody AGX-A07 (antibody, V domains shown)
# VH: QIQLVQSGPELKKPGETVKISCKASGYTFTNYGVKWVKQAPGKDLKWMGWINTYTGNPIYAADFKGRFAFSLETSASTAFLQINNLKNEDTATYFCVRFQYGDYRYFDVWGAGTTVTVSS
# VL: QIILSQSPAILSASPGEKVTMTCRANSGISFINWYQQKPGSSPKPWIYGTANLASGVPARFGGSGSGTSYSLTISRVEAEDAATYYCQQWSSNPLTFGAGTKLELR
# notes: The humanized A07 variants (A07-YTEC etc.) used in the ADC killing assays are different molecules and are not entered
# Test system: not given
# Assay: not given
# Conditions: treatment with CA4P; cited from earlier work
row,Molecule,Patients who experienced heart attacks while being treated
1,"COc1ccc(/C=C\c2cc(OC)c(OC)c(OC)c2)cc1OP(=O)(O)O [CA4P, Combretastatin]",seven

# Target: T1, Transmembrane-4 L six family member-1 …
# Assay: antibody screen (method not described in this filing)
# Conditions: not given
row,binding result,Molecule
1,binds,B1
2,binds,B2
3,binds,B3
4,binds,B4
5,binds,B5
6,binds,B6
